For experiment [1], the target named is KDR on KDR-transfected 293H cells (human), P35968. In words: competitor 125I-VEGF (300 pM), KDR-transfected 293H cells, peptide 30 µM. Conditions: remark: other sources report otherwise.
Experiment [2] shares this target. Kind of experiment: competitor 125I-VEGF (300 pM), KDR-transfected 293H cells, peptide 0.3 µM. To be noted: remark: other sources report otherwise.

Bridge positions count the residues as written; N and C are the ends.

B1: SEQ ID NO:264 (peptide)
peptide: Ac-AGPKWCEEDWYYCMITGTGGGK-NH2
modifications: disulfide 6-13 (inferred); also: fluorescein on C-terminal Lys in FP only
For the molecule B1, the % inhibition of 125I-labeled VEGF binding in experiment [1] turned out to be 48%; in experiment [2], 24.4%.

(Values after patent US20100003195A1.)
